Laboratory results from patent publication US20200291096A1, “BICYCLIC PEPTIDE LIGAND STING CONJUGATES AND USES THEREOF” (priority 2017, published 2020).
Starred links: 1 amine or outer side, 2 acyl side, 3 side chain; linkers in the order of their positions; H or OH if unused. Positions of bridges follow the written chain, without caps; N, C: chain ends. Non-standard residues stand in square brackets, D forms with d. Residues, ends and D or L forms follow the SMILES beside them. *: point of attachment. X1 = CC(C)[C@H](NC(=O)Cn1cc(CCC(=O)*)nn1)C(=O)N[C@@H](CCCNC(N)=O)C(=O)Nc1ccc(COC(=O)N(C)CCN(C)C(=O)O[C@@H]2[C@@H]3OP(=O)(O)OC[C@H]4O[C@@H](n5cnc6c(N)ncnc65)[C@H](O)[C@@H]4OP(=O)(O)OC[C@H]3O[C@H]2n2cnc3c(=O)[nH]c(N)nc32)cc1; X4 = CC(C)[C@H](NC(=O)Cn1cc(CCC(=O)*)nn1)C(=O)N[C@@H](CCCNC(N)=O)C(=O)Nc1ccc(COC(=O)NCCNC(=O)O[C@@H]2[C@@H]3OP(=O)(O)OC[C@H]4O[C@@H](n5cnc6c(N)ncnc65)[C@H](O)[C@@H]4OP(=O)(O)OC[C@H]3O[C@H]2n2cnc3c(=O)[nH]c(N)nc32)cc1; X5 = Nc1nc2c(ncn2[C@@H]2O[C@@H]3COP(=O)(O)O[C@H]4[C@@H](O)[C@H](n5cnc6c(N)ncnc65)O[C@@H]4COP(=O)(O)O[C@H]3[C@H]2OC(=O)NCCSSCCCC(=O)*)c(=O)[nH]1; X2 = Nc1nc2c(ncn2[C@@H]2O[C@@H]3COP(=O)(O)O[C@H]4[C@@H](O)[C@H](n5cnc6c(N)ncnc65)O[C@@H]4COP(=O)(O)O[C@H]3[C@H]2OC(=O)*)c(=O)[nH]1; X6 = Nc1ncnc2c1ncn2[C@@H]1O[C@@H]2COP(=O)(S)O[C@H]3[C@@H](OC(=O)*)[C@H](n4cnc5c(N)ncnc54)O[C@@H]3COP(=O)(S)O[C@H]2[C@H]1F; 1Nal = N[C@@H](Cc1cccc2ccccc12)C(=O)O; TBMB = c1c(C[*:1])cc(C[*:3])cc1C[*:2]; X3 = O=C(CCc1cn(CCCN[*:1])nn1)[*:2]; Tle = CC(C)(C)[C@H](N)C(=O)O; βAla = NCCC(=O)O; Sar = CNCC(=O)O

What was measured:
[1] = in vitro; conditions: human, plasma, pH 7.4
Protocol: (§1) The pooled frozen mouse, rat, monkey or human plasma is thawed in a water bath at 37° C. prior to experiment. Plasma is centrifuged at 4000 rpm for 5 min and the clots are removed if any. The pH is adjusted to 7.4±0.1 if required. 5 mM intermediate solutions of test compounds are prepared with DMSO. 1 mM intermediate solution of positive control Propantheline is prepared by diluting 5 μL of the stock solution with 45 μL ultra pure water. 1 mM intermediate solution of positive control Enalaprit is prepared by diluting 5 μL of the stock solution with 45 μL DMSO. 100 μM dosing solution is prepared by diluting 20 μL of the intermediate solution (1 mM) with 180 μL DMSO. For positive controls, 100 μM intermediate solution is prepared by diluting 20 μL of the stock solution with 180 μL 45% MeOH/H2O. […] 196 μL of blank plasma is spiked with 4 μL of dosing solution (100 μM) to achieve 2 μM of the final concentration in duplicate and samples are incubated at 37° C. in a water bath. At each time point (0, 1, 2, 4, 6 and 24 hr), 800 μL of stop solution (200 ng/mL tolbutamide, 200 ng/ML Labetalol in 50% MeOH/ACN) was added to precipitate protein and mixed thoroughly. Sample plates are centrifuged at 4,000 rpm for 10 min. An aliquot of supernatant (150 μL) is transferred from each well before submitting to LC-MS/MS analysis.
(§2) The percentage of test compound remaining at the individual time points relative to the 0 hour sample is calculated using following equation: Percent Remaining=100×(PAR at appointed incubation time/PAR at To time) where PAR is the peak area ratio of analyte versus internal standard (IS).

[2] = 3 mg/kg IV, male CD-1 mice, plasma (FIG. 1)
Protocol: Male CD-1 mice were dosed with 3 mg/kg of Bicycle Conjugate formulated in 25 mM Histidine HCl, 10% sucrose pH 7 via tail vein injection. Serial bleeding (about 80 μL blood/time point) was performed via submadibular or saphenous vein at each time point. All blood samples were immediately transferred into prechilled microcentrifuge tubes containing 2 μL K2-EDTA (0.5M) as anti-coagulant and placed on wet ice. Blood samples were immediately processed for plasma by centrifugation at approximately +4° C., 3000 g. The precipitant including internal standard (350 uL) was immediately added into the 35 uL plasma sample, mixed well and centrifuged at 3220 g, +4° C. for 15 minutes. The supernatant was transferred into pre-labelled polypropylene microcentrifuge tubes, and then quick-frozen over dry ice. The samples were stored at −70° C. or below as needed until analysis. Supernatant samples were mixed with 50 uL water, vortexed well and centrifuged at 3220 g, +4° C. for 15 minutes. A sample of the supernatant was injected for LC-MS/MS analysis using an Acquity UPLC with AB Sciex 6500+Triple Quad MS in positive ion mode to determine the concentrations of Bicycle conjugate and released payload. Plasma concentration versus time data were analyzed by non-compartmental approaches using the Phoenix WinNonlin 6.3 software program. […]

[3] = in vitro; conditions: mouse, plasma, pH 7.4
Protocol: as §1, §2

[4] = in vitro; conditions: male, CD-1, mouse, whole blood
Protocol: CD-1 mouse blood (n >2,male, fasted overnight) is collected from animals housed at an internal facility. (EDTA-K2 is used as anticoagulant)
The test compounds and positive control stock solutions are prepared to 10 mM in DMSO or ultrapure water. […] The dosing solutions of test compounds and controls are prepared by diluting the stock solution with 45% MeOH/H2O to achieve 100 uM. Test compound solutions (final incubation concentration=2 μM) are incubated with blood (final DMSO concentration≤1%) at six different time points (0, 1, 2, 4, 6 and 24 hours) in duplicate (n=2). The reaction is terminated by adding 100 uL ultra-pure water, mixing well, then adding 800 uL of 100% methanol containing 200 ng/mL tolbutamide and 200 ng/mL labetalol as internal standards. Samples are then vortexed and centrifuged at 3200×g for 20 minutes. Following centrifugation, the concentration of test compound in the supernatant is determined semi-quantitatively by LC-MS/MS. The percentage of test compound remaining at the individual time points relative to the 0 hour sample is then reported. The percent remaining of test compound after incubation in blood is calculated using following equation: Percent Remaining=100×(PAR at appointed incubation time/PAR at To time) where PAR is the peak area ratio of analyte versus internal standard (IS).

[5] = Plasma stability (cyno); assay type: in vitro ADME; conditions: cynomolgus monkey, pH 7.4, 37° C., read-out: T1/2 (cyno)
Protocol: as §1, §2

[6] = in vitro; conditions: rat, plasma, pH 7.4
Protocol: as §1, §2

SMILES	half-life at 2 μM [1] [h]	systemic elimination [2]	half-life at 2 μM [3] [h]	half-life at 2 μM [4] [h]	stability in mouse blood	half-life at 2 μM [5] [h]	half-life at 2 μM [6] [h]
CC(C)[C@H](NC(=O)Cn1cc(CCC(=O)NCCC(=O)N(C)CC(=O)N(C)CC(=O)N(C)CC(=O)N(C)CC(=O)N(C)CC(=O)N(C)CC(=O)N(C)CC(=O)N(C)CC(=O)N(C)CC(=O)N(C)CC(=O)N[C@@H](C)C(=O)N[C@H]2CSCc3cc4cc(c3)CSC[C@H](NC(=O)[C@@H](C)NC(=O)[C@H](Cc3cccc5ccccc35)NC(=O)[C@H](CCC(=O)O)NC(=O)[C@H](CC(N)=O)NC(=O)[C@@H](C)NC2=O)C(=O)N[C@@H](CCC(=O)O)C(=O)N[C@@H](CC(=O)O)C(=O)N[C@@H](Cc2ccccc2)C(=O)N[C@@H](Cc2ccc(O)cc2)C(=O)N[C@@H](CC(=O)O)C(=O)N[C@@H](C(C)(C)C)C(=O)N[C@H](C(N)=O)CSC4)nn1)C(=O)N[C@@H](CCCNC(N)=O)C(=O)Nc1ccc(COC(=O)N(C)CCN(C)C(=O)O[C@@H]2[C@@H]3OP(=O)(O)OC[C@H]4O[C@@H](n5cnc6c(N)ncnc65)[C@H](O)[C@@H]4OP(=O)(O)OC[C@H]3O[C@H]2n2cnc3c(=O)[nH]c(N)nc32)cc1 [I-68] ({X1-βAla}-[Sar][Sar][Sar][Sar][Sar][Sar][Sar][Sar][Sar][Sar]AC[dA]NE[1Nal][dA]CEDFYD[Tle]C-NH2; linker 12-18-25 via TBMB)	> 24	rapid systemic elimination	6 to 24	2 to 6	dramatic stability	> 24	> 24
C[C@H](NC(=O)CN(C)C(=O)CN(C)C(=O)CN(C)C(=O)CN(C)C(=O)CN(C)C(=O)CN(C)C(=O)CN(C)C(=O)CN(C)C(=O)CN(C)C(=O)CN(C)C(=O)CCNC(=O)CCc1cn(CCCNC(=O)O[C@@H]2[C@@H]3OP(=O)(O)OC[C@H]4O[C@@H](n5cnc6c(N)ncnc65)[C@H](O)[C@@H]4OP(=O)(O)OC[C@H]3O[C@H]2n2cnc3c(=O)[nH]c(N)nc32)nn1)C(=O)N[C@H]1CSCc2cc3cc(c2)CSC[C@H](NC(=O)[C@@H](C)NC(=O)[C@H](Cc2cccc4ccccc24)NC(=O)[C@H](CCC(=O)O)NC(=O)[C@H](CC(N)=O)NC(=O)[C@@H](C)NC1=O)C(=O)N[C@@H](CCC(=O)O)C(=O)N[C@@H](CC(=O)O)C(=O)N[C@@H](Cc1ccccc1)C(=O)N[C@@H](Cc1ccc(O)cc1)C(=O)N[C@@H](CC(=O)O)C(=O)N[C@@H](C(C)(C)C)C(=O)N[C@H](C(N)=O)CSC3 [I-66] (X2-[X3][βAla][Sar][Sar][Sar][Sar][Sar][Sar][Sar][Sar][Sar][Sar]AC[dA]NE[1Nal][dA]CEDFYD[Tle]C-NH2; linker 14-20-27 via TBMB)	> 24	–	> 24	6 to 24	dramatic stability	> 24	> 24
C[C@H](NC(=O)CN(C)C(=O)CN(C)C(=O)CN(C)C(=O)CN(C)C(=O)CN(C)C(=O)CN(C)C(=O)CN(C)C(=O)CN(C)C(=O)CN(C)C(=O)CN(C)C(=O)CCNC(=O)CCc1cn(CCCNC(=O)O[C@@H]2[C@@H]3OP(=O)(S)OC[C@H]4O[C@@H](n5cnc6c(N)ncnc65)[C@H](F)[C@@H]4OP(=O)(S)OC[C@H]3O[C@H]2n2cnc3c(N)ncnc32)nn1)C(=O)N[C@H]1CSCc2cc3cc(c2)CSC[C@H](NC(=O)[C@@H](C)NC(=O)[C@H](Cc2cccc4ccccc24)NC(=O)[C@H](CCC(=O)O)NC(=O)[C@H](CC(N)=O)NC(=O)[C@@H](C)NC1=O)C(=O)N[C@@H](CCC(=O)O)C(=O)N[C@@H](CC(=O)O)C(=O)N[C@@H](Cc1ccccc1)C(=O)N[C@@H](Cc1ccc(O)cc1)C(=O)N[C@@H](CC(=O)O)C(=O)N[C@@H](C(C)(C)C)C(=O)N[C@H](C(N)=O)CSC3 (stereo partly shown) [Conjugate 1 of Example 7.4] (X6-[X3][βAla][Sar][Sar][Sar][Sar][Sar][Sar][Sar][Sar][Sar][Sar]AC[dA]NE[1Nal][dA]CEDFYD[Tle]C-NH2; linker 14-20-27 via TBMB)	> 24	–	6 to 24	–	–	> 24	> 24
C[C@H](NC(=O)CN(C)C(=O)CN(C)C(=O)CN(C)C(=O)CN(C)C(=O)CN(C)C(=O)CN(C)C(=O)CN(C)C(=O)CN(C)C(=O)CN(C)C(=O)CN(C)C(=O)CCNC(=O)CCCSSCCNC(=O)O[C@@H]1[C@@H]2OP(=O)(O)OC[C@H]3O[C@@H](n4cnc5c(N)ncnc54)[C@H](O)[C@@H]3OP(=O)(O)OC[C@H]2O[C@H]1n1cnc2c(=O)[nH]c(N)nc21)C(=O)N[C@H]1CSCc2cc3cc(c2)CSC[C@H](NC(=O)[C@@H](C)NC(=O)[C@H](Cc2cccc4ccccc24)NC(=O)[C@H](CCC(=O)O)NC(=O)[C@H](CC(N)=O)NC(=O)[C@@H](C)NC1=O)C(=O)N[C@@H](CCC(=O)O)C(=O)N[C@@H](CC(=O)O)C(=O)N[C@@H](Cc1ccccc1)C(=O)N[C@@H](Cc1ccc(O)cc1)C(=O)N[C@@H](CC(=O)O)C(=O)N[C@@H](C(C)(C)C)C(=O)N[C@H](C(N)=O)CSC3 [I-64] ({X5-βAla}-[Sar][Sar][Sar][Sar][Sar][Sar][Sar][Sar][Sar][Sar]AC[dA]NE[1Nal][dA]CEDFYD[Tle]C-NH2; linker 12-18-25 via TBMB)	< 2	–	< 2	–	–	< 2	< 2
CC(C)[C@H](NC(=O)Cn1cc(CCC(=O)NCCC(=O)N(C)CC(=O)N(C)CC(=O)N(C)CC(=O)N(C)CC(=O)N(C)CC(=O)N(C)CC(=O)N(C)CC(=O)N(C)CC(=O)N(C)CC(=O)N(C)CC(=O)N[C@@H](C)C(=O)N[C@H]2CSCc3cc4cc(c3)CSC[C@H](NC(=O)[C@@H](C)NC(=O)[C@H](Cc3cccc5ccccc35)NC(=O)[C@H](CCC(=O)O)NC(=O)[C@H](CC(N)=O)NC(=O)[C@@H](C)NC2=O)C(=O)N[C@@H](CCC(=O)O)C(=O)N[C@@H](CC(=O)O)C(=O)N[C@@H](Cc2ccccc2)C(=O)N[C@@H](Cc2ccc(O)cc2)C(=O)N[C@@H](CC(=O)O)C(=O)N[C@@H](C(C)(C)C)C(=O)N[C@H](C(N)=O)CSC4)nn1)C(=O)N[C@@H](CCCNC(N)=O)C(=O)Nc1ccc(COC(=O)NCCNC(=O)O[C@@H]2[C@@H]3OP(=O)(O)OC[C@H]4O[C@@H](n5cnc6c(N)ncnc65)[C@H](O)[C@@H]4OP(=O)(O)OC[C@H]3O[C@H]2n2cnc3c(=O)[nH]c(N)nc32)cc1 [I-65] ({X4-βAla}-[Sar][Sar][Sar][Sar][Sar][Sar][Sar][Sar][Sar][Sar]AC[dA]NE[1Nal][dA]CEDFYD[Tle]C-NH2; linker 12-18-25 via TBMB)	> 24	–	6 to 24	–	–	> 24	> 24
